Test results reported in patent CN117567612A (CHINA RESOURCES BIOMEDICAL CO LTD, dated 2024).

Legend:
CLDN18.2 [1] = molecular target: T1, CLDN18.2; experiment: kinetics, method not stated
T1 construct: For the EC50 it stood on overexpressing cells; also called claudin18.2; CLDN18.2过表达细胞

CLDN18.2 [2] = molecular target: T1, CLDN18.2; experiment: flow cytometry on CLDN18.2-overexpressing cells, MFI fitted in GraphPad Prism

B1: IMAB362 (antibody, V domains shown)
VH: QVQLQQPGAELVRPGASVKLSCKASGYTFTSYWINWVKQRPGQGLEWIGNIYPSDSYTNYNQKFKDKATLTVDKSSSTAYMQLSSPTSEDSAVYYCTRSWRGNSFDYWGQGTTLTVSS
VL: DIVMTQSPSSLTVTAGEKVTMSCKSSQSLLNSGNQKNYLTWYQQKPGQPPKLLIYWASTRESGVPDRFTGSGSGTDFTLTISSVQAEDLAVYYCQNDYSYPFTFGSGTKLEIKR
Kd (CLDN18.2 [1]): 4.17 nM
koff (CLDN18.2 [1]): 0.00158 s⁻¹
kon (CLDN18.2 [1]): 378000 M⁻¹ s⁻¹
EC50 (CLDN18.2 [2]): 1.75 µg/mL

B2: CLDN-BC-P1022-hH1 (antibody, V domains shown)
VH: QVQLVQSGGGLVQPGGSLRLSCAASGFTFSSYEMNWVRQAPGKGLEWVAYITGSGRTMYYADSVKGRITISRDNAKNSLYLQMNSLRAEDTAVYYCARYWNYAGGMDVWGQGTLVTVSS
VL: DIQMTQSPSSVSASVGDRVTITCRASQGISSWLAWYQQKPGKAPKLLIYAASSLQSGVPSRFSGSGSGTDFTLTISSLQPEDFATYYCQQANSFPLTFGGGTKVEIK
notes: detected with anti-human IgG Fc); P1022 is the only antibody of the application; also called CLN-P1022-hH1; 全人源抗体P1022
EC50 (CLDN18.2 [2]): 0.12 µg/mL
